Experimental data taken from article PMC7272460, “Structural and functional evidence of bacterial antiphage protection by Thoeris defense system via NAD^+ degradation” (Nature Communications, 2020).
Substitutions are numbered along the chain they refer to. Names may count otherwise. “And” between values parts separate entries of the source, which are not always exact repeats. Equal values may be shown once.

Assays:
[1] = test system: NC(=O)c1ccc[n+]([C@@H]2O[C@H](COP(=O)(O)OP(=O)(O)OC[C@H]3O[C@@H](n4cnc5c(N)ncnc54)[C@H](O)[C@@H]3O)[C@@H](O)[C@H]2O)c1; test: purified protein; assay type: biochemical, Bacillus cereus; settings: 2.0 μM ThsA, 63 mM NaCl, 14 mM Tris-HCl pH 7.5, 25 °C
[2] = molecular target: the molecule itself; test: SEC-MALS; Superdex 200 Increase 10/300 GL, 200 mM NaCl, 2 mM DTT, 20 mM HEPES pH 7.5, 25 °C; ThsA loaded at 11 mg/mL, ThsB at 24 mg/mL (~1 mM)
[3] = molecular target: the molecule itself; test: SEC; analytical SEC of single ThsA proteins (wild type, N112A, H152A) to compare the oligomeric state; Superdex 200 10/300 GL, 150 mM NaCl, 1 mM DTT, 20 mM HEPES pH 7.5
[4] = molecular target: the molecule itself; test: crystal structure; ThsA crystals, sitting drop, 20 °C, 22% polypropylene glycol 400, 0.2 M MgCl2, 0.1 M MES pH 6.5; 2.5 Å; four protomers in the asymmetric unit

## ThsA (Bacillus cereus MSX-D12)
[1]
  Km: 270 µM
  kcat: 0.565 s⁻¹

B1: ThsA of the Bacillus cereus MSX-D12 Thoeris defense system, wild type (enzyme)
chain: MNPIVELFIKDFTKEVMEENAAIFAGAGLSMSVGYVSWAKLLEPIAQEIGLDVNKENDLVSLAQYYCNENQGNRGRINQIILDEFSRKVDLTENHKILARLPIHTYWTTNYDRLIEKALEEENKIADVKYTVKQLATTKVKRDAVVYKMHGDVEHPSEAVLIKDDYEKYSIKMDPYIKALSGDLVSKTFLFVGFSFTDPNLDYILSRVRSAYERDQRRHYCLIKKEERRPDELEADFEYRVRKQELFISDLSRFNIKTIVLNNYNEITEILQRIENNIKTKTVFLSGSAVEYNHWETEHAEQFIHQLSKELIRKDFNIVSGFGLGVGSFVINGVLEELYMNQGTIDDDRLILRPFPQGKKGEEQWDKYRRDMITRTGVSIFLYGNKIDKGQVVKAKGVQSEFNISFEQNNYVVPVGATGYIAKDLWNKVNEEFETYYPGADARMKKLFGELNNEALSIEELINTIIEFVEILSN
notes: ThsA, Bacillus cereus MSX-D12, synthetic thsA gene in pET28a; the structure has an N-terminal sirtuin-like domain (residues 1-283) and a C-terminal SLOG-like domain (residues 284-476); The synthetic thsA gene was cloned; Predominantly a tetramer by SEC-MALS, with a trace of octamer; also called B. cereus ThsA; wild-type ThsA; source: E. coli BL21(DE3), purified (HisTrap, TEV cleavage, second …)
[2]
  stoichiometry N: 4 and 8

B2: ThsA N112A mutant (enzyme)
chain: B1 chain with N110A
notes: ThsA, Bacillus cereus MSX-D12, synthetic thsA gene in pET28a, point mutant made by PCR with mismatched primers; source: E. coli BL21(DE3), purified; not shown: His6, N-terminal, cleaved; MBP, N-terminal, cleaved
[3]
  binding result: binds

B3: selenomethionyl ThsA of Bacillus cereus MSX-D12 (crystallised) (enzyme)
chain: B1 chain
modifications: selenomethionine at seven of eight possible Met sites
notes: ThsA, Bacillus cereus MSX-D12, synthetic thsA gene in pET28a; N-terminal sirtuin-like domain (residues 1-283) and C-terminal SLOG-like domain (residues 284-476) in the structure; Four protomers (chains A-D) in the asymmetric unit; The methods describe only selenomethionyl protein before the crystallisation; that the deposited structure is of this form is inferred; also called selenomethionyl …
[4]
  binding result: binds
